The values that follow come from patent US20250277023A1 (published 2025).

To fix the notation:
B1: R1124: PD-L1_VH_IL21R/TIGIT_VL_IL21/TIGIT_VH/PD-L1-VL (bispecific antibody)
chain 1: not shown
chain 2: not shown
heavy: QVQLVQSGAEVKKPGSSVKVSCKASGYSFTSYWMNWVRQAPGQGLEWIGMIRPSDSETRLNQMFKDRVTITVDKSTSTAYMELSSLRSEDTAVYYCAGIHDYGHGAYWGQGTLVTVSSASTKGPSVFPLAPSSKSTSGGTAALGCLVKDYFPEPVTVSWNSGALTSGVHTFPAVLQSSGLYSLSSVVTVPSSSLGTQTYICNVNHKPSNTKVDKRVEPKSCDKTHTCPPCPAPELLGGPSVFLFPPKPKDTLMISRTPEVTCVVVDVSHEDPEVKFNWYVDGVEVHNAKTKPREEQYNSTYRVVSVLTVLHQDWLNGKEYKCKVSNKALPAPIEKTISKAKGQPREPQVYTLPPSREEMTKNQVSLWCLVKGFYPSDIAVEWESNGQPENNYDTTPPVLDSDGSFFLYSDLTVDKSRWQQGNVFSCSVMHEALHNHYTQKSLSLSPGK
light: EIVLTQSPDFQSVTPKEKVTITCSVSSSISSSNLHWYQQKPDQSPKLLIYGTSNLASGVPSRFSGSGSGTDFTLTINSLEAEDAATYYCQQWSSYPLTFGQGTKLEIKRTVAAPSVFIFPPSDEQLKSGTASVVCLLNNFYPREAKVQWKVDNALQSGNSQESVTEQDSKDSTYSLSSTLTLSKADYEKHKVYACEVTHQGLSSPVTKSFNRGEC
B2: R1120: TIGIT_VH_IL18R1_D1D2D3/TIGIT_VL_IL18/PD-L1-Fab (bispecific antibody)
chain 1: QVQLVQSGAEVKKPGSSVKVSCKASGYSFTSYWMNWVRQAPGQGLEWIGMIRPSDSETRLNQMFKDRVTITVDKSTSTAYMELSSLRSEDTAVYYCAGIHDYGHGAYWGQGTLVTVSSGGGGSGGGGSGGGGSGGGGSGCTSRPHITVVEGEPFYLKHCSCSLAHEIETTTKSWYKSSGSQEHVELNPRSSSRIALHDCVLEFWPVELNDTGSYFFQMKNYTQKWKLNVIRRNKHSCFTERQVTSKIVEVKKFFQITCENSYYQTLVNSTSLYKNCKKLLLENNKNPTIKKNAEFEDQGYYSCVHFLHHNGKLFNITKTFNITIVEDRSNIVPVLLGPKLNHVAVELGKNVRLNCSALLNEEDVIYWMFGEENGSDPNIHEEKEMRIMTPEGKWHASKVLRIENIGESNLNVLYNCTVASTGGTDTKSFIEPKSSDKTHTCPPCPAPELLGGPSVFLFPPKPKDTLMISRTPEVTCVVVDVSHEDPEVKFNWYVDGVEVHNAKTKPREEQYNSTYRVVSVLTVLHQDWLNGKEYKCKVSNKALPAPIEKTISKAKGQPREPQVYTLPPSREEMTKNQVSLTCRVKGFYPSDIAVEWESNGQPENNYKTTPPVLKSDGSFFLASKLTVDKSRWQQGNVFSCSVMHEALHNHYTQKSLSLSPGK
chain 2: not shown
heavy: EVQLQESGPGLVKPSETLSLTCAVYGDSITSGYWNWIRKPPGKGLEYMGYISYTGSTYQNPSLKSRITFSRDTSKNQYYLKLSSVTAADTATYYCARSRAWIRTYFDYWGQGTLVTVSSASTKGPSVFPLAPSSKSTSGGTAALGCLVKDYFPEPVTVSWNSGALTSGVHTFPAVLQSSGLYSLSSVVTVPSSSLGTQTYICNVNHKPSNTKVDKRVEPKSCDKTHTCPPCPAPELLGGPSVFLFPPKPKDTLMISRTPEVTCVVVDVSHEDPEVKFNWYVDGVEVHNAKTKPREEQYNSTYRVVSVLTVLHQDWLNGKEYKCKVSNKALPAPIEKTISKAKGQPREPQVYTLPPSREEMTKNQVSLWCLVKGFYPSDIAVEWESNGQPENNYDTTPPVLDSDGSFFLYSDLTVDKSRWQQGNVFSCSVMHEALHNHYTQKSLSLSPGK
light: B1 light
B3: R1116: TIGIT_VH_IL2/TIGIT_VL_IL2RA/PD-L1-Fab (bispecific antibody)
chain 1: not shown
chain 2: DIQMTQSPSSLSASVGDRVTITCRASENIYSNLAWYQQKPGKSPKLLVYAASHLPDGVPSRFSGSGSGTDYSLTISSLQPEDFATYYCQHFWGTPRTFGQGTKLEIKGGGGSGGGGSGGGGSGGGGSGELCDDDPPEIPHATFKAMAYKEGTMLNCECKRGFRRIKSGSLYMLCTGNSSHSSWDNQCQCTSSATRNTTKQVTPQPEEQKERKTTEMQSPMQPVDQASLPGHCREPPPWENEATERIYHFVVGQMVYYQCVQGYRALHRGPAESVCKMTHGKTRWTQPQLICTG
heavy: B2 heavy
light: B1 light
B4: R1119: TIGIT_VH_IL18R1_D1D2/TIGIT_VL_IL18/PD-L1-Fab (bispecific antibody)
chain 1: QVQLVQSGAEVKKPGSSVKVSCKASGYSFTSYWMNWVRQAPGQGLEWIGMIRPSDSETRLNQMFKDRVTITVDKSTSTAYMELSSLRSEDTAVYYCAGIHDYGHGAYWGQGTLVTVSSGGGGSGGGGSGGGGSGGGGSGCTSRPHITVVEGEPFYLKHCSCSLAHEIETTTKSWYKSSGSQEHVELNPRSSSRIALHDCVLEFWPVELNDTGSYFFQMKNYTQKWKLNVIRRNKHSCFTERQVTSKIVEVKKFFQITCENSYYQTLVNSTSLYKNCKKLLLENNKNPTIKKNAEFEDQGYYSCVHFLHHNGKLFNITKTFNITIVEDRSNIVEPKSSDKTHTCPPCPAPELLGGPSVFLFPPKPKDTLMISRTPEVTCVVVDVSHEDPEVKFNWYVDGVEVHNAKTKPREEQYNSTYRVVSVLTVLHQDWLNGKEYKCKVSNKALPAPIEKTISKAKGQPREPQVYTLPPSREEMTKNQVSLTCRVKGFYPSDIAVEWESNGQPENNYKTTPPVLKSDGSFFLASKLTVDKSRWQQGNVFSCSVMHEALHNHYTQKSLSLSPGK
chain 2: not shown
heavy: B2 heavy
light: B1 light
B5: R0919 (PD-L1 monoclonal antibody) (antibody, V domains shown)
VH: EVQLQESGPGLVKPSETLSLTCAVYGDSITSGYWNWIRKPPGKGLEYMGYISYTGSTYQNPSLKSRITFSRDTSKNQYYLKLSSVTAADTATYYCARSRAWIRTYFDYWGQGTLVTVSS
VL: EIVLTQSPDFQSVTPKEKVTITCSVSSSISSSNLHWYQQKPDQSPKLLIYGTSNLASGVPSRFSGSGSGTDFTLTINSLEAEDAATYYCQQWSSYPLTFGQGTKLEIK
B6: R1082: TIGIT_VH (W108C)_IL15RA/TIGIT_VL(S43C)_IL15/PD-L1-Fab (bispecific antibody)
chain 1: QVQLVQSGAEVKKPGSSVKVSCKASGYSFTSYWMNWVRQAPGQGLEWIGMIRPSDSETRLNQMFKDRVTITVDKSTSTAYMELSSLRSEDTAVYYCAGIHDYGHGAYCGQGTLVTVSSGGGGSGGGGSGGGGSGGGGSGITCPPPMSVEHADIWVKSYSLYSRERYICNSGFKRKAGTSSLTECVLNKATNVAHWTTPSLKCIRDPALVHQRPAPPSTVTTAGVTPQPESLSPSGKEPAASSPSSNNTAATTAAIVPGSQLMPSKSPSTGTTEISSHESSHGTPSQTTAKNWELTASASHQPPGVYPQGHSDTTEPKSSDKTHTCPPCPAPELLGGPSVFLFPPKPKDTLMISRTPEVTCVVVDVSHEDPEVKFNWYVDGVEVHNAKTKPREEQYNSTYRVVSVLTVLHQDWLNGKEYKCKVSNKALPAPIEKTISKAKGQPREPQVYTLPPSREEMTKNQVSLTCRVKGFYPSDIAVEWESNGQPENNYKTTPPVLKSDGSFFLASKLTVDKSRWQQGNVFSCSVMHEALHNHYTQKSLSLSPGK
chain 2: DIQMTQSPSSLSASVGDRVTITCRASENIYSNLAWYQQKPGKCPKLLVYAASHLPDGVPSRFSGSGSGTDYSLTISSLQPEDFATYYCQHFWGTPRTFGQGTKLEIKGGGGSGGGGSGGGGSGGGGSGNWVNVISDLKKIEDLIQSMHIDATLYTESDVHPSCKVTAMKCFLLELQVISLESGDASIHNTVQDLIILANNSLSSNGNVTESGCKECEELEEKNIKEFLQSFVHIVQMFINTS
heavy: B2 heavy with E1Q, M48I, F69M, T92V
light: DIQMTQSPSSLSASVGDRVTITCSVSSSISSSNLHWYQQKPGKAPKPWIYGTSNLASGVPSRFSGSGSGTDYTLTISSLQPEDFATYYCQQWSSYPLTFGQGTKLEIKRTVAAPSVFIFPPSDEQLKSGTASVVCLLNNFYPREAKVQWKVDNALQSGNSQESVTEQDSKDSTYSLSSTLTLSKADYEKHKVYACEVTHQGLSSPVTKSFNRGEC
B7: R1083: TIGIT_VH (L45C)_IL15RA/TIGIT_VL(F98C)_IL15/PD-L1-Fab (bispecific antibody)
chain 1: B6 chain 1 with L45C, C108W
chain 2: B6 chain 2 with C43S, F98C
heavy: B2 heavy with E1Q, M48I, F69M, T92V
light: B6 light

Where a chain is given by its changes, count along the chain named. Names and notes keep the numbering of the source.

In general, EC50 refers to the concentration that produces a half-maximal response. A higher EC50 goes with a need for much substance.

The target of the first experiment is T1, PD-L1 (on CHO-PD-L1 cells) (UniProt Q9NZQ7 19-290). Briefly: FACS binding; Fig. 22. (A flow cytometer gives signals particle by particle.)
T1 sequence (Q9NZQ7 19-290): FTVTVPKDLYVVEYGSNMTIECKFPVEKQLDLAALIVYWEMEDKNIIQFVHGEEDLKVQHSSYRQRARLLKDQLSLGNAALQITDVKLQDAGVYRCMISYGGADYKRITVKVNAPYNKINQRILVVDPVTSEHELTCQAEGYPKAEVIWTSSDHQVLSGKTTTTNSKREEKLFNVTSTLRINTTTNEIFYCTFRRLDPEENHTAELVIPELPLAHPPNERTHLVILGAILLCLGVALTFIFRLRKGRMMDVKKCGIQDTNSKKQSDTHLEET
On to B1, for which the EC50 amounted to 13.7 nM.

Turning to B2, the EC50 came to 2.99 nM.

For B3, the EC50 amounted to 4.15 nM.

Take B4: it took 2.95 nM to reach a half-maximal effect (EC50).

In turn, B5 registered an EC50 of 3.38 nM.

The next experiment deals with T1, PD-L1 (on CHO-PD-L1 cells). Kind of experiment: FACS binding; Fig. 24.
Consider B6, for which a half-maximal effect (EC50) was put at 2.78 nM.

Take B7: the EC50 was 2.29 nM.
